B1: TbEK1 (formerly TbC/EK1) (Trypanosoma brucei brucei TREU927) (protein)
chain: MEVAVGHVRHVPCTVPDDPASRMRAIREIVARHCALFMQKGGDVGRSQCASNLGNNITSGTSNGFDADRLQVVAFSGGITNEMYHVYCEGWEAHSVVMRIFGKETERVISRGDELFYQSLFIPTYVRGQNFLVYQYLYQYEPLPFVEMVKEYEKIARGIAFFHVRATLEARSDYSVTPVGGVVGAGGATVGPTNTCSRFDLEENYIVHSLTEWVEQALSETVQEKVDATKRATYASVAQQLKEEAQWLLPLMQRHSPELGESTCHNDLLSGNIMRQKSDGALKIIDFEYAKRNYFLFDIANHFNEYTGLECDYATYFPSEEHMKKFVTTYMCAMREELEKHAEEAKRRQLTDIIPGQQHFFMCDVGGVEGDKRIHRMVQLVKLLTLASHLSWSVWALLQEAVSKTDMDFLRYSQLRLSRYLETRKEFSASS
B2: TbC/EK2 (Trypanosoma brucei brucei TREU927) (protein)
chain: MALRPFPLGNTPLHAVIRRSAREFECVEAVPASNAVRSPSTASWVSAESLDSIISLANRTSEEMEVDQLIYRLCRSLYHVAKKKSAQIHCHPNHQERQQQQQQASSSGWRSVECEGHFSNMRGREDWCPLLHLFDPRSYYKVMGQPSQHDGCKLCGDVVGTESSPEGVSQWLMSELSVTRLTGGNSNHVYRLGHASFPKKAVLLRVYGDGGGGDVIDRARDIKVMRLMSKSEMGPGLLHTFHWGRVEEFMDGVLTCTTEKLLTSPSLLADVYGGLSKMHQLDYTPLLPENMRTKGMSNGHNSSQSVSDTVSKSGGGQEGPDGTVGGVNELESTCHTSFERVCLRLLRLVSLNVVEEHRHSLESWLAGEVMFVRRELQYRGIPVVLSHNDLNPGNILLSDGAGEASGTVFSDEELRVENTPLSKRYVTRKGKNMNLVERRGFLFIDFEYADANYRCFDLGNTLCELDYDYTRGTEAGGRGFIKYLFVFPPPAMEEAWRGLGEEYPRMPELIYDAWRRGVCDGSSDIGSVALLAVRRYFAERDNVPLETVELSEAQVGEVLLGMLASHLYWTIWSMTMGSAPDNCVECEDCDDQMFAVGGSGLDYMRYGECRLREYIALRGWLAEKGLLS

What was measured:
Test in all cases: purified protein
[1] = substrate: Nc1ncnc2c1ncn2[C@@H]1O[C@H](COP(=O)(O)OP(=O)(O)OP(=O)(O)O)[C@@H](O)[C@H]1O; conditions: 6 mM MgCl2, 150 mM KCl, 50 mM Mops pH 7.8
[2] = substrate: NCCO; assay type: biochemical, Trypanosoma brucei; conditions: 5 mM ATP, 6 mM MgCl2, 150 mM KCl, 50 mM Mops pH 7.8
[3] = substrate: C[N+](C)(C)CCO; assay type: biochemical, Trypanosoma brucei; conditions: 5 mM ATP, 6 mM MgCl2, 150 mM KCl, 50 mM Mops pH 7.8

Protein	Km ([1]; 2 mM ethanolamine)	kcat ([1]; 2 mM ethanolamine)	kcat/Km ([1]; 2 mM ethanolamine)	Km [2]	kcat [2]	kcat/Km [2]	Km ([1]; 2 mM choline)	kcat ([1]; 2 mM choline)	kcat/Km ([1]; 2 mM choline)	Km [3]	kcat [3]	kcat/Km [3]
B1	219.2 ± 29 µM	6.56 s⁻¹	29900 M⁻¹ s⁻¹	18.4 ± 0.9 µM	6.56 s⁻¹	357000 M⁻¹ s⁻¹						
B2				2560 ± 310 µM	12.91 s⁻¹	5040 M⁻¹ s⁻¹	20.6 ± 1.96 µM	12.91 s⁻¹	627000 M⁻¹ s⁻¹	31.4 ± 2.6 µM	12.91 s⁻¹	411000 M⁻¹ s⁻¹
